Measurements as given in US6255062A, “β-type DNA polymerases” (priority 1994, dated 2001).

Experiments:
[1] = biological target: T1, yeast β-type DNA polymerase (Saccharomyces cerevisiae, UniProt P25615); assay: Inhibitor sensitivity of DNA polymerase activity in 12CA5 immunoprecipitates; format: biochemical; settings: for Polβ Activity (1): experiment 1; for Polβ Activity (2): experiment 2
T1 construct: made in house; host or cells: Saccharomyces cerevisiae BJ5459 carrying pGAL18HAβ, galactose induced; 12CA5 immunoprecipitate on protein A beads

[2] = system: DNA polymerases α, δ and ε; settings: cited from earlier work
[3] = system: activated DNA or poly dA-oligo dT primer-template; assay: DNA polymerase activity in 12CA5 immunoprecipitates; format: biochemical; settings: for Polβ Activity (1): experiment 1; for Polβ Activity (2): experiment 2
[4] = system: dA-dT and rA-dT primer-templates; assay: rNTP incorporation and reverse transcriptase activities of immunoprecipitated polymerase; format: biochemical
[5] = system: poly dT labeled at the 3'-end with terminal transferase; assay: 3' exonuclease activity; format: biochemical; settings: data not shown
[6] = primer-template DNA, Aphidicolin (30 μg/ml), compare dCTP (10 mM) control
[7] = dA-dT (20:1), dTTP (10 mM)/ddTTP (10 mM)

Molecule: C[C@@]1(CO)[C@H](O)CC[C@@]2(C)[C@H]1CC[C@H]1C[C@@H]3C[C@@]12CC[C@]3(O)CO [Aphidicolin, aphidicolin]
- sensitivity of yeast β-type DNA polymerase to aphidicolin ([1]; 30 μg/ml): resistant
- Polβ Activity (1) [1, 6]: 162
- Polβ Activity (2) [1, 6]: 78
- inhibition of DNA polymerases α, δ and ε ([2]; aphidicolin 30 μg/ml): completely inhibits

Molecule: CCN1C(=O)C=CC1=O [NEM, N-ethylmaleimide]
- sensitivity of yeast β-type DNA polymerase to N-ethylmaleimide ([1]; 10 mM): sensitive
- Polβ Activity (1) ([1]; primer-template DNA, NEM (10 mM)): 8

Molecule: Cc1cn([C@H]2CC[C@@H](COP(=O)(O)OP(=O)(O)OP(=O)(O)O)O2)c(=O)[nH]c1=O [ddTTP, dideoxythymidine triphosphate]
- Polβ Activity (1) [1, 7]: 11
- Polβ Activity (2) [1, 7]: 6
- effect of ddTTP on yeast β-type DNA polymerase ([1]; levels used in Table 2): inhibited
- inhibition of DNA polymerase α, δ and ε ([2]; ddTTP at the levels used here): does not inhibit

B1: HA polβ: β-type DNA polymerase from S. cerevisiae (POL4, SEQ ID NO:2) tagged at NH2 terminus with influenza hemagglutinin epitope (protein)
chain: MSLKGKFFAFLPNPNTSSNKFFKSILEKKGATIVSSIQNCLQSSRKEVIILIEDSFVDSDMHLTQKDIFQREAGLNDVDEFLGKIEQSGIQCVKTSCITKWVQNDKFAFQKDDLIKFQPSIIVISDNADDGQSSTDKESEISTDVESERNDDSNNKDMIQASKPLKRLLQEDKGRASLVTDKTKYKNNELIIGALKRLTKKYEIEGEKFRARSYRLAKQSMENCDFNVRSGEEAHTKLRNIGPSIAKKIQVILDTGVLPGLNDSVGLEDKLKYFKNCYGIGSEIAKRWNLLNFESFCVAAKKDPEEFVSDWTILFGWSYYDDWLCKMSRNECFTHLKKVQKALRGIDPECQVELQGSYNRGYSKCGDIDLLFFKPFCNDTTELAKIMETLCIKLYKDGYIHCFLQLTPNLEKLFLKRIVERFRTAKIVGYGERKRWYSSEIIKKFFMGVKFSPRELEELKEMKNDEGTLLIEEEEEEETKLNPIDQYMSLNAKDGNYCRRLDFFCCKWDELGAGRIHYTGSKEYNRWIRILAAQKGFKLTQHGLFRNNILLESFNERRIFELLNLKYAEPEHRNIEWEKKTA
modifications: N-terminal HA epitope tag
- DNA polymerase activity relative to controls [3]: 10 fold
- synthesis on the poly dA template alone (primer requirement) [3]: No synthesis was observed
- Polβ Activity (1) ([3]; […], Complete): 101
- Polβ Activity (1) ([3]; […], dCTP (10 mM)): 212
- Polβ Activity (2) ([3]; […], dCTP (10 mM)): 106
- Polβ Activity (1) ([3]; dA-dT (10:1), Complete): 105
- Polβ Activity (2) ([3]; dA-dT (10:1), Complete): 244
- Polβ Activity (1) ([3]; dA-dT (20:1), Complete): 293
- Polβ Activity (2) ([3]; dA-dT (20:1), Complete): 411
- Polβ Activity (1) ([3]; dA-dT (20:1), dTTP (10 mM)): 95
- Polβ Activity (2) ([3]; dA-dT (20:1), dTTP (10 mM)): 102
- processivity [4]: processivity is low
- Activity ([4]; dA-dT, 3H NTP T, Mg, Experiment 1): 480 pmol
- Activity ([4]; dA-dT, 3H NTP T, Mn, Experiment 1): 769 pmol
- Activity ([4]; dA-dT, 3H NTP U, Mg, Experiment 1): 110 pmol
- Activity ([4]; dA-dT, 3H NTP U, Mg, Experiment 2): 187 pmol
- Activity ([4]; dA-dT, 3H NTP U, Mn, Experiment 1): 202 pmol
- Activity ([4]; dA-dT, 3H NTP U, Mn, Experiment 2): 209 pmol
- reverse transcriptase activity ([4]; in the presence of either Mg++ or Mn++): significant reverse transcriptase activity
- Activity ([4]; rA-dT, 3H NTP T, Mg, Experiment 1): 65 pmol
- Activity ([4]; rA-dT, 3H NTP T, Mg, Experiment 2): 81 pmol
- Activity ([4]; rA-dT, 3H NTP T, Mn, Experiment 1): 191 pmol
- Activity ([4]; rA-dT, 3H NTP T, Mn, Experiment 2): 59 pmol
- Activity ([4]; rA-dT, 3H NTP U, Mg, Experiment 2): 32 pmol
- Activity ([4]; rA-dT, 3H NTP U, Mn, Experiment 2): 55 pmol
- 3' exonuclease activity [5]: no 3' exonuclease activity
